Test results published in the supplement of paper PMC10567573.

B1: INTS3 (parent)
chain: FSDDEEDLNSKGKKREFRFHPIKE
B2: SNAP91 (parent)
chain: FAAPSPATTASPAKVDSSGVIDLF

Variants of: B1
Test: protein stability index of a GFP-peptide fusion (GPS, HEK-293T) (PSI 1-6); higher = more stable
Details: c terminus: a fixed tail appended
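Also: lentivirally expressed fusions sorted by FACS into six bins by GFP to DsRed ratio, PSI derived from sequencing read proportions per bin multiplied by bin number.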

Protein stability index, by site and new letter:
H20: S 5.18; T 4.59; V 3.92; W 4.31; Y 4.51
P21: A 3.98; C 3.28; D 3.76; E 4; F 3.58; G 4.16; H 4.01; I 3.7; K 4.55; L 4.25; M 3.32; N 4.11; Q 3.44; R 4.19; S 3.88; T 4.43; V 3.88; W 2.53; Y 3.73
I22: A 2.88; C 2.48; D 3.98; E 3.89; F 2.12; G 2.98; H 2.91; K 2.81; L 3.19; M 3.2; N 2.88; P 3.25; Q 3.32; R 3; S 2.63; T 3.29; V 3.07; W 2.33; Y 2.48
K23: A 3.81; C 3.43; D 4.1; E 3.64; F 3.4; G 3.19; H 3.34; I 2.93; L 2.95; M 3.5; N 3.18; P 3.06; Q 3.18; R 2.68; S 3.19; T 3.52; V 3.06; W 2.75; Y 2.91
E24: A 2.2; C 2.18; D 3.07; F 1.91; G 2.17; H 2.2; I 2.06; K 2.14; L 2.14; M 1.8; N 2.69; P 1.76; Q 2.35; R 2.31; S 2.11; T 1.81; V 2.07; W 2.45; Y 2.72

Variants of: B2
Test: as above
Details: c terminus: a fixed tail appended

Protein stability index of substitutions, site by site:
F1: A 3.95; C 3.82; D 4.3; E 4.39; G 4.43; H 3.86; I 3.47; K 4.14; L 3.4; M 3.76; N 3.79; Q 4.28; R 2.94; S 3.56; T 4.13; V 3.9; W 3.01; Y 2.3
A2: C 1.69; D 3.57; E 4.29; F 2.44; G 3.57; H 1.63; I 2.03; K 3.08; L 2.56; M 2.27; N 3.45; P 3.03; Q 2.17; R 2.89; S 2.97; T 3.36; V 1.69; W 1.99; Y 2.09
A3: C 1.99; D 2.29; E 2.17; F 1.62; G 2.32; H 2.23; I 2.28; K 2.38; L 2.33; M 1.92; N 1.86; P 2.44; Q 2.31; R 2.12; S 2.61; T 2.6; V 2.46; W 2.09; Y 1.79
P4: A 1.79; C 1.56; D 2.33; E 2.23; F 1.61; G 1.95; H 2.26; I 1.77; K 2.08; L 1.93; M 2.18; N 2.43; Q 2.2; R 2.12; S 1.71; T 1.67; V 2.13; W 1.76; Y 1.38
S5: A 2.51; C 2.16; D 3; E 3.18; F 1.97; G 2.45; H 1.96; I 1.95; K 2.66; L 2.81; M 2.24; N 2.59; Q 2.34; R 2.1; V 2.64; W 2.62; Y 1.96
P6: A 2.18; C 2.32; D 3.01; E 3.08; F 2.02; G 2.31; H 2.36; I 1.84; K 2.16; L 1.49; M 2.44; N 2.94; Q 2.63; R 1.95; S 2.65; T 2.23; V 1.82; W 2.35; Y 1.7
A7: C 1.75; D 2.25; E 3.06; F 2.65; G 2.85; H 2.7; I 2.1; K 2.65; L 1.9; M 2.23; N 2.46; P 2.62; Q 2.84; R 2.36; S 2.49; T 2.11; V 2.53; W 3; Y 2.54
T8: A 2.62; C 2.56; D 2.65; E 2.23; F 1.33; G 2.3; H 3.12; I 2.85; K 2.42; L 2.27; M 2.7; N 2.58; Q 2.54; R 2.24; S 2.52; V 2.85; W 2.33; Y 1.94
T9: A 3.02; C 2.43; D 3.22; E 2.77; F 1.63; G 2.28; H 2.66; I 2.16; K 2.91; L 2.25; M 2.31; N 2.58; Q 2.46; R 2.42; S 2.77; V 2.61; W 3.89; Y 1.67
A10: C 1.94; D 2.57; E 2.56; F 1.92; G 1.64; H 2.29; I 2.42; K 2.23; L 2.74; M 2.24; N 2.59; Q 2.27; R 1.99; S 2.32; T 2.36; V 2.94; W 2.84; Y 1.72
S11: A 2.47; C 2.14; D 2.73; E 2.69; F 1.96; G 2.45; H 2.08; I 2.3; K 2.6; L 2.77; M 2.28; N 2.38; Q 2.56; R 2.45; T 2.48; V 2.38; W 1.33; Y 2.35
P12: A 2.19; C 1.85; D 2.6; E 2.97; F 1.8; G 1.92; H 2.27; I 2.08; K 1.96; L 2.49; M 2.17; N 2.6; Q 2.6; R 2.2; S 2.32; T 2.15; V 2.09; W 2.04; Y 1.97
A13: C 2.29; D 2.71; E 2.61; F 2.01; G 1.98; H 2.3; I 1.92; K 3.05; L 2.43; M 2.31; N 2.38; P 3.09; Q 2.37; R 2.34; S 2.25; T 2.33; V 2.79; W 2.12; Y 1.83
K14: A 2.94; C 2.41; D 2.47; E 2.81; F 1.86; G 2.05; H 2.46; I 2.61; L 2.28; M 2.3; N 2.52; P 2.7; Q 2.48
